Tests used:
[1] = molecular target: T1, E. coli Undecaprenyldiphosphatsynthase (EcUPPS) (Escherichia coli, UniProt P60472); assay: MTP phosphate detection assay (diphosphate release, BIOMOL Green), substrate kinetics; assay type: biochemical; details: for rel. kcat Km^-1: relative to natural substrate FPP (100 %)
T1 construct: made in house; host or cells: E. coli
T1 sequence (P60472 1-253): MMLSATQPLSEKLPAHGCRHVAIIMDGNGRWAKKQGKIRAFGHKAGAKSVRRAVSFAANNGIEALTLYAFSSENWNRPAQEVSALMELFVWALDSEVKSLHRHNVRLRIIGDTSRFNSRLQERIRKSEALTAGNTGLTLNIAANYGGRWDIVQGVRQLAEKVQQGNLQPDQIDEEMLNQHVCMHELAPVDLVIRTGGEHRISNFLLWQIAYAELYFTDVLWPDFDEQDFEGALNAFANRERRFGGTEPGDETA
Description: (§1) Cis-Prenyltransferasen entlassen während der Reaktion Diphosphat nach jedem Kondensationsschritt. Dies ist der Ansatzpunkt, der gewählt wurde, um unabhängig von der Art des Produktes den Grundumsatz zu detektieren. […] Die Dreifachbestimmungen der Enzymreaktionen wurden mit 100 µL BIOMOL Green™ Detektionsreagenz gestoppt und nach weiteren 20 min in einem Mikrotiterplattenspektrophotometer bei 620 nm gemessen. Zur Kontrolle erfolgte für jede Substratkonzentration eine Messung mit denaturiertem Enzym zu den unterschiedlichen Zeitpunkten um Selbsthydrolyse der Substrate zu berücksichtigen. Zur Quantifizierung wurde eine Pi-Standardkurve in Doppelbestimmung mitgeführt. Die Verdünnung des KPi-Standards erfolgte in Assaypuffer, wurde mit 100 µL BIOMOL Green™ Detektionsreagenz nach Ablauf der Enzymreaktion in den Test-Wells detektiert und zeitgleich nach weiteren 20 min bei 620 nm gemessen. Eine lineare Beziehung zwischen A620 nm und Pi-Konzentration ermöglichte eine Quantifizierung zwischen 80 µM-0 µM Pi.
(§2) Die Bestimmung der FPP-Kinetiken der EcUPPS sowie der ThkCPT erfolgte unter analogen Bedingungen der Bestimmung von IPP. […] Die Enzymreaktion wurde nach 60 s, 120 s, 180 s, 300 s, 600 s, 900 s oder 1200 s durch Zugabe von 100 µL BIOMOL Green™ Detektionsreagenz gestoppt und wie oben beschrieben gemessen.
(§3) Die Assaybedingungen wurden wie in Beispiel 3 beschriebenen gewählt. […] Variation von 500 - 0 µM im Fall der Elongationssubstrate erfolgte konstant mit 10 µM FPP (jedes Homoallyldiphosphat möglich).
(§4) Zur Berechnung der Umsatzraten in nkat·mg^-1 wurde verwendet: ν0 = ((A620-ABlank)⋅1000)/(2⋅m⋅t⋅[E]) [formula] v0 Anfangsgeschwindigkeit der Diphosphathydrolyse (nkat·mg^-1) A620 Absorption bei 620 nm ABlank Absorption der Kontrolle bei 620 nm m Anstieg der Phosphatstandardkurve (µM^-1) t Dauer der Enzymreaktion (s) [E] Enzymkonzentration (mg·L^-1)
(§5) Die Auswertung erfolgte durch nicht-lineare Regression nach der Hill-Gleichung mit Sigma-Plot 11. […] Substratkonzentration (µM) h Hill-Koeffizient

ThkCPT = molecular target: T2, ThkCPT (Thermococcus kodakarensis, UniProt Q5JGE1); assay: Product chain length by HPLC with fluorescent starter substrate 110; assay type: biochemical, Thermococcus kodakaraensis
T2 construct: made in house; host or cells: E. coli
T2 sequence (Q5JGE1 1-264): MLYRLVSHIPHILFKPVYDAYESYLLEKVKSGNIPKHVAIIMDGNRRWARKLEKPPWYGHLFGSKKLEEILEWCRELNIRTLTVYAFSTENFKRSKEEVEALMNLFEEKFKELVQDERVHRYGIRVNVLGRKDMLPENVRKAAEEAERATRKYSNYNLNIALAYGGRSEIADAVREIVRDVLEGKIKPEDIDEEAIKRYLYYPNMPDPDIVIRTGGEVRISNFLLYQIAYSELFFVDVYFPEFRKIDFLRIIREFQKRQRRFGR
Description: (§6) Zur Bestimmung der Produktkettenlängen wurden 500 µL Enzymassays in MS-Gläschen durchgeführt. […] Die Extraktion der Polyprenyldiphosphate erfolgte mit 500 µL 1-Butanol. Die Butanolphase wurde in ein neues Glas überführt und unter Stickstoffstrom von dem Lösungsmittel befreit. Die Hydrolyse der Diphosphate zum Polyprenol erfolgte durch Zugabe von 200 µL Hydrolysepuffer (20% Isopropanol, 4,4 Units/mL saure Phophatase aus Kartoffeln, 0,1 % Triton X-100, 50 mM Natriumacetat (pH 4,7)) und wurde über Nacht bei 37 °C inkubiert. Die Polyprenole wurden mit 500 µL nHexan extrahiert und zur weiteren DC- oder HPLC-Analyse vorbereitet. Für DC-Experimente und LC/ESI-MS-Analysen wurde die nHexan-Phase in ein neues Glas überführt, das Lösungsmittel abgedampft und die Produkte erneut in 100 µL nHexan resuspendiert um eine Aufkonzentrierung zu erreichen. Für HPLC-Analysen mit 110 ((2E,6E)-8-O-(N-methyl-2-aminobenzoyl)-3,7-dimethyl-2,6-octandien-1-diphosphat) als Startersubstrat wurde die nHexan-Phase 1:3 verdünnt in das HPLC-System mittels Autosampler injiziert.
Die HPLC-Analyse der Polyprenole erfolgte an einer Anlage von Merck HITACHI D-7000, wobei als stationäre Phase eine YMC-ODS AQ (150 x 4 mm, 5 µm; YMC Europe GmbH, Dinslaken) Säule verwendet wurde. Die Elution erfolgte mit 1 mL·min^-1 und die Detektion bei 210 nm mit einem UV-VIS Detektor: Merck HITACHI L-7420. Das Injektionsvolumen betrug dabei 5 µL. Die mobile Phase setzte sich aus Laufmittel A (MeOH/H2O/Isopropanol 12:1:8 (v/v/v)) und Laufmittel B (nHexan/Isopropanol 7:3 (v/v)) zusammen. Die Probenaufgabe erfolgte mittels Autosampler (Merck HITACHI L-7250). [drawing 35]
Zur selektiven und vor allem sensitiven Detektion von Polyprenolen kann ein alternatives, fluoreszierendes Startersubstrat verwendet werden, (2E,6E)-8-O-(N-methyl-2-aminobenzoyl)-3,7-dimethyl-2,6-octandien-1-diphosphat (110). Die Analyse erfolgte wie in Beispiel 6 beschrieben. Dabei wurden 3 µL pro Probe injiziert und die Detektion erfolgte über Fluoreszenz: Ex 352 nm / Em 420 nm wobei das Gerät Merck HITACHI L-7480 als Fluoreszenzdetektor verwendet wurde. […]

EcUPPS = molecular target: T3, EcUPPS (Escherichia coli, UniProt P60472); assay: as above; assay type: biochemical; details: 10 µM EcUPPS, 110 as starter substrate, HPLC of hydrolysed products
T3 construct: made in house; host or cells: E. coli
Description: as §6
Die HPLC-Analyse der Polyprenole erfolgte an einer Anlage von Merck HITACHI D-7000, wobei als stationäre Phase eine YMC-ODS AQ (150 x 4 mm, 5 µm; YMC Europe GmbH, Dinslaken) Säule verwendet wurde. Die Elution erfolgte mit 1 mL·min^-1 und die Detektion bei 210 nm mit einem UV-VIS Detektor: Merck HITACHI L-7420. […]

[2] = molecular target: T4, Thermococcus kodakaraensis cis-Prenyltransferase (ThkCPT) (Thermococcus kodakarensis, UniProt Q5JGE1); assay: MTP phosphate detection assay (diphosphate release, BIOMOL Green), substrate kinetics; assay type: biochemical; details: elongation substrate varied, starter FPP 10 µM, room temperature
T4 construct: made in house; host or cells: E. coli
T4 sequence (Q5JGE1 1-264): T2 sequence (Q5JGE1 1-264)
Description: as §1, §2, §3, §4, §5

[3] = substrate: C=C(Br)CCOP(=O)(O)OP(=O)(O)O; assay: as above; assay type: biochemical, Thermococcus kodakaraensis; details: other: elongation substrate varied, starter FPP 10 µM, room temperature
Description: as §1, §2, §3, §4, §5

[4] = substrate: C=C(Cl)CCOP(=O)(O)OP(=O)(O)O; assay: as above; assay type: biochemical, Thermococcus kodakaraensis; details: other: elongation substrate varied, starter FPP 10 µM, room temperature
Description: as §1, §2, §3, §4, §5

[5] = substrate: C=C(C)CCO[P@@](=O)(O)OP(=O)(O)O; assay: purified protein, by the assay type; details: other: elongation substrate varied, starter FPP 10 µM, room temperature
[6] = substrate: C=C(C)CCO[P@@](=O)(O)OP(=O)(O)O; assay: MTP phosphate detection assay (diphosphate release, BIOMOL Green), substrate kinetics; assay type: biochemical, Escherichia coli; details: other: elongation substrate varied 500 - 0 µM, starter FPP constant 10 µM; 22.0 °C
Description: as §1, §2, §3, §4, §5

[7] = substrate: CC(C)=CCC/C(C)=C/COP(=O)(O)OP(=O)(O)O; assay: as above; assay type: biochemical, Escherichia coli; details: other: starter substrate varied 80 - 0 µM, elongation substrate IPP constant 150 µM, 22°C
Description: as §1, §2, §3, §4, §5

[8] = substrate: C=C(Br)CCOP(=O)(O)OP(=O)(O)O; assay: as above; assay type: biochemical, Escherichia coli; details: other: elongation substrate varied 500 - 0 µM, starter FPP constant 10 µM; 22.0 °C
Description: as §1, §2, §3, §4, §5

[9] = substrate: CNc1ccccc1C(=O)OC/C(C)=C/CC/C(C)=C/COP(=O)(O)OP(=O)(O)O; assay: as above; assay type: biochemical, Escherichia coli; details: other: starter substrate varied 80 - 0 µM, elongation substrate IPP constant 150 µM, 22°C
Description: as §1, §2, §3, §4, §5

[10] = substrate: CC(C)=CCC/C(C)=C/CC/C(C)=C/CC/C(C)=C/COP(=O)(O)OP(=O)(O)O; assay: as above; assay type: biochemical, Escherichia coli; details: other: starter substrate varied 80 - 0 µM, elongation substrate IPP constant 150 µM, 22°C
Description: as §1, §2, §3, §4, §5

[11] = substrate: C=C(Cl)CCOP(=O)(O)OP(=O)(O)O; assay: as above; assay type: biochemical, Escherichia coli; details: other: elongation substrate varied 500 - 0 µM, starter FPP constant 10 µM; 22.0 °C
Description: as §1, §2, §3, §4, §5

[12] = starter substrate varied, IPP constant 150 µM

`CC(C)=CCC/C(C)=C/CC/C(C)=C\COP(=O)(O)OP(=O)(O)O` [Z,E-FPP] was tested, and the “rel. kcat Km^-1” value [1] was 90%.

For `CC(C)=CCC/C(C)=C/CC/C(C)=C/CC/C(C)=C/COP(=O)(O)OP(=O)(O)O` [GGPP, Geranylgeranyldiphosphat], the “rel. kcat Km^-1” value [1] was 76%.

With Farnesyldiphosphat [FPP] the “rel. kcat Km^-1” value [1] was 100%, the Km ([1]; starter substrate varied 80 - 0 µM, elongation substrate IPP constant 150 µM, 22°C) was 1.8 µM and the kcat [1, 12] was 0,5 s^-1. The vmax [1, 12] was 17,9 ± 0,4 nkat/mg.

In the case of `C=C(Br)CCOP(=O)(O)OP(=O)(O)O` [Br-BPP, 3-Brom-3-Butenyldiphosphat], the “Kondensationen (Reaktionsprodukte)” value (ThkCPT; 10 µM ThkCPT, 110 as starter substrate, room temperature 25°C) is reported as “mehr als zwei Kondensationen”, the “Kondensationsschritte / Elongationseinheiten” value (EcUPPS) is reported as 2 and the kcat [2] is reported as 0,0004 s^-1. For the same molecule, the kcat ([1]; elongation substrate varied, starter FPP 10 µM) was 0,0004 s^-1.

`CNc1ccccc1C(=O)OC/C(C)=C/CC/C(C)=C/COP(=O)(O)OP(=O)(O)O` [Substrat 110, (2E,6E)-8-O-(N-methyl-2-aminobenzoyl)-3,7-dimethyl-2,6-octandien-1-diphosphat] was tested, and the “Akzeptanz als Startersubstrat der ThkCPT” value (ThkCPT; 65°C) was “als Startersubstrat akzeptiert” and the “rel. kcat Km^-1” value [1] was 4%.

B1: Thermococcus kodakaraensis cis-Prenyltransferase (ThkCPT) (Thermococcus kodakarensis KOD1) (protein)
chain: T2 sequence (Q5JGE1 1-264)
notes: made in house; host or cells: E. coli
For B1, the Km [3] was 54,0 +/- 11,1 µM, the Vmax [3] was 0,01 nKat mg^-1 and the Km [4] was 21,2+/-2,1 µM. The Vmax [4] was 0,01 nKat mg^-1, the Km [5] was 14.8 µM and the Vmax [5] was 2,0 nKat mg^-1. For the same molecule, the kcat [5] was 0,07 s^-1.

B2: E. coli Undecaprenyldiphosphatsynthase (EcUPPS) (Escherichia coli K-12) (protein)
chain: T1 sequence (P60472 1-253)
notes: as for B1
For B2, the Km [6] was 6.5 µM, the Vmax [6] was 14,4 nkat mg^-1 and the kcat [6] was 0,4 s^-1. The Km [7] was 48,8 ± 8,3 µM, the Vmax [7] was 11,3 ± 0,7 nkat/mg and the kcat [7] was 0,3 s^-1. For the same molecule, the kcat/Km [7] was 7000 M⁻¹ s⁻¹, the Km [8] was 6.4 µM and the Vmax [8] was 0,02 nkat mg^-1. For the same molecule, the Km [9] was 5.6 µM, the Vmax [9] was 1,9 ± 0,1 nkat/mg and the kcat [9] was 0,1 s^-1. For the same molecule, the kcat/Km [9] was 11000 M⁻¹ s⁻¹, the Km [10] was 1.9 µM and the Vmax [10] was 14,9 ± 0,3 nkat/mg. The kcat [10] was 0,4 s^-1, the kcat/Km [10] was 223000 M⁻¹ s⁻¹ and the Km [11] was 3.8 µM. The Vmax [11] was 0,03 nkat mg^-1.

— EP2848693A1, “Concatenation of halogenated alkenyl diphosphate derivatives” (LANXESS Deutschland GmbH, priority 2013, dated 2015)
